Assay results taken from article PMC4833211.

Biological target: KirBac1.1 WT
Experiment: SEC

## KirBac1.1 WT (natural protein)
  stoichiometry N: 4
